Patent publication JP2000515494A
Substitutions are numbered along the chain they refer to. Values joined by “and” are separate entries in the source; they are usually repeats but may differ in a detail not shown here. Equal values may be shown once. Blank lines part the entries; values can stand above or below the binder they belong to.

Assays:
[1] = target: 組換えヒトIL-5 (recombinant human interleukin-5) (human) (UniProt P05113); experiment: optical biosensor (BIAcore)
[2] = target: 組換えヒトIL-5 (recombinant human interleukin-5) (human) (UniProt P05113); experiment: cell-based or functional assay
[3] = target: hIL-5/IL-5レセプターα鎖複合体 (hIL-5 captured on IL-5RαFc) (human) (UniProt P05113); experiment: ELISA (europium fluorescence), IL-5RαFc on protein A + IL-5, mAb added; concentration 32 ng/ml
[4] = target: hIL-5/IL-5レセプターα鎖複合体 (hIL-5 captured on IL-5RαFc) (human) (UniProt P05113); experiment: ELISA (europium fluorescence), IL-5RαFc on protein A + IL-5, mAb added; concentration 2 ng/ml
[5] = target: hIL-5/IL-5レセプターα鎖複合体 (hIL-5 captured on IL-5RαFc) (human) (UniProt P05113); experiment: ELISA (europium fluorescence), IL-5RαFc on protein A + IL-5, mAb added; concentration 8 ng/ml
[6] = target: hIL-5/IL-5レセプターα鎖複合体 (hIL-5 captured on IL-5RαFc) (human) (UniProt P05113); experiment: ELISA (europium fluorescence), IL-5RαFc on protein A + IL-5, mAb added; concentration 0 ng/ml
[7] = target: 組換えヒトIL-5 (recombinant human interleukin-5) (human) (UniProt P05113); experiment: optical biosensor
[8] = target: 組換えヒトIL-5 (recombinant human interleukin-5) (human) (UniProt P05113); experiment: inhibition of 125I-IL-5 binding to IL-5Rα (Drosophila membranes), dose dependent

Kd [1]: 0.02 nM and < 0.035 nM
ネズミB13の増殖の阻害 (B13 proliferation assay) [2]: > 70%
B1: ネズミモノクローナル抗体2E3 (antibody, from another filing, mouse IgG2a, V domains shown)
VH: PGLVAPSQSLSITCTVSGFSLTSYSVHWVRQPPGKGLEWLGVIWASGGTDYNSALMSRLSISKDNSKSQVFLKLNSLQTDDAAMYYCARDPPFSLLRLDFWGQGTTLTVSS
VL: SSLSVSAGEKVTMSCKSSQSLLNSGNQKNYLAWYQQKPGQPPKLLIYGASTRESGVPDRFTGSGSGTDFTLTISSVQAEDLAVYYCQNDHSFPFTFGSGTELEIK

ネズミB13の増殖の阻害 (B13 proliferation assay) [2]: > 70%
B2: ネズミモノクローナル抗体2F2 (antibody, from another filing, V domains shown)
VH: B1 VH with Q78R, A82T, F93S, F100Y
VL: B1 VL

結合(個数) [3]: 4980 個数
Kd [1]: 0.022 nM and < 0.035 nM
結合(個数) [4]: 2940 個数
結合(個数) [5]: 3200 個数
ネズミB13の増殖の阻害 (B13 proliferation assay) [2]: > 70%
結合(個数) [6]: 2770 個数
B3: ネズミモノクローナル抗体2B6 (antibody, from another filing, V domains shown)
VH: QVQLKESGPGLVAPSQSLSITCTVSGFSLTSYSVHWVRQPPGKGLEWLGVIWASGGTDYNSALMSRLSISKDNSKSQVFLKLNSLQTDDTAMYYCARDPPSSLLRLDYWGQGTTLTVSS
VL: DIVMTQSPSSLSVSAGEKVTMSCKSSQSLLNSGNQKNYLAWYQQKPGQPPKLLIYGASTRESGVPDRFTGSGSGTDFTLSISSVQAEDLAVYYCQNVHSFPFTFGSGTELEIK

Kd [7]: 0.09 nM
IC50 [8]: 7.5 µg/mL
B4: mAb 2B6から由来のFab (recombinant 2B6 Fab, hexa-His) (Fab, from another filing, V domains shown)
VH: B3 VH
VL: B3 VL
